The target of one data set is UBE2W-WT (human) (UniProt Q96B02). Briefly: SEC.
The data set “SEC” concerns the molecule itself. Briefly: SEC.

“UBE2W-WT (from UniProt Q96B02 1-151) (enzyme)” returned a stoichiometry N in the data set with UBE2W-WT (human) of 2.

B1: UBE2W-131Δ (truncation following Y131) (domain or fragment, human, UniProt Q96B02 1-131, looked up)
chain: MASMQKRLQKELLALQNDPPPGMTLNEKSVQNSITQWIVDMEGAPGTLYEGEKFQLLFKFSSRYPFDSPQVMFTGENIPVHPHVYSNGHICLSILTEDWSPALSVQSVCLSIISMLSSCKEKRRPPDNSFY
With B1, the “stoichiometry N” value in “SEC” was determined as 2.

Usually stoichiometry N stands for a count of units in the complex or per binding partner.

These data come from publication PMC3758794 (Cell biochemistry and biophysics, 2013).
